Data as given in paper PMC10219671.

Molecular target: SARS-CoV-2 HR2 protein (heptad repeat 2 of the S2 subunit of the spike protein) (SARS-CoV-2)
Experiment: ELISA

“SARS-CoV-2 HR1 protein (heptad repeat 1 of the S2 subunit of the spike protein) (domain or fragment)” was tested, and the IC50 was 47.8 nM.
